Assay results reported in patent publication US5985836A, “Alpha-1 proteinase inhibitor binding peptides” (Bayer Corporation, priority 1998, dated 1999).
Ends that are not written are not given here.

What was measured:
A1PI [1] = target: T1, A1PI (Homo sapiens, UniProt P01009); test: A1PI purification from 5 mg hSA + 1 mg A1PI on peptide column, A1PI mass balance; type: binding; settings: for Mass AlPI Eluted in Acid Eluate: nephelometry; for Mass Protein per Eluate Fraction, 1M NaCl / Mass Protein per Eluate Fraction, 2% Ac. Acid / Mass Protein per Eluate Fraction, 3M NaCl / Mass Protein per Eluate Fraction, Flow / Percent Eluted by Fraction, 1M NaCl / Percent Eluted by Fraction, 2% Ac. Acid / Percent Eluted by Fraction, 3M NaCl / Percent Eluted by Fraction, Flow: A1PI, 5 mg hSA + 1 mg A1PI; for Mass Protein per Eluate Fraction, 1M NaCl / Mass Protein per Eluate Fraction, 2% Ac. Acid / Mass Protein per Eluate Fraction, 3M NaCl / Mass Protein per Eluate Fraction, Flow: * Below detection limit; for Percent Eluted by Fraction, 1M NaCl / Percent Eluted by Fraction, 2% Ac. Acid / Percent Eluted by Fraction, 3M NaCl / Percent Eluted by Fraction, Flow: relative to total eluted
T1 construct: Human plasma is currently the only approved source of therapeutic AlPI
T1 sequence (P01009 25-418): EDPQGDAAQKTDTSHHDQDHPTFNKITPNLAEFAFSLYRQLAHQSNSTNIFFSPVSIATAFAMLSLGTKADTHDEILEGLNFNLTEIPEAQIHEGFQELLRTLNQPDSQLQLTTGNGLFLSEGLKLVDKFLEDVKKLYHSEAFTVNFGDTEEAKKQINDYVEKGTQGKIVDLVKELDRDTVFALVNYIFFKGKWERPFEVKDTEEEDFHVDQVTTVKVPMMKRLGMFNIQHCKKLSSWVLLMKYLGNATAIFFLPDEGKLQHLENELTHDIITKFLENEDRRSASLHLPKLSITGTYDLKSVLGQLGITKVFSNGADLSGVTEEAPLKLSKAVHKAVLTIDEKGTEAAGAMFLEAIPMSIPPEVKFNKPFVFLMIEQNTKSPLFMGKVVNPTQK
Outline: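 Mass balance by immunonephelometry of fractions from step elutions (1M NaCl, 3M NaCl, 2% acetic acid, neutralised with Tris) at 865 μl/min. Sample was a mixture of 1 mg A1PI and 5 mg hSA held 10 min on peptide-derivatised Toyopearl columns (0.1 mmole/g) at 4 °C or 20 °C.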

Immunoglobulin A (IgA) = test: Purification from Effluent II+III, IgA mass balance; type: binding, human; settings: 1 ml Eff. II+III, 4° C.
Outline: (§1)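 Run at 4° C: Effluent II+III (1 ml, 20% ethanol) loaded with a 10 min residence. Elution at 865 μl/min, in sequence 1M NaCl, 3M NaCl, 2% acetic acid; A1PI, IgA, IgG and haptoglobin accounted for in each fraction.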

Immunoglobulin G (IgG) = test: Purification from Effluent II+III, IgG mass balance; type: binding, human; settings: 1 ml Eff. II+III, 4° C.
Outline: as §1

[2] = target: T2, apolipoprotein alpha-1 (Apo A-1) (Homo sapiens, UniProt P02647); test: Purification from Effluent II+III, Apo A-1 mass balance; type: binding; settings: 1 ml Eff. II+III, 4° C.
T2 construct: Eff; II+III is a process intermediate in the Cohn plasma fractionation process; tissue Bayer Corporation (Clayton, N.C.); host or cells: plasma fraction: Cohn Effluent II+III
T2 sequence (P02647 19-267): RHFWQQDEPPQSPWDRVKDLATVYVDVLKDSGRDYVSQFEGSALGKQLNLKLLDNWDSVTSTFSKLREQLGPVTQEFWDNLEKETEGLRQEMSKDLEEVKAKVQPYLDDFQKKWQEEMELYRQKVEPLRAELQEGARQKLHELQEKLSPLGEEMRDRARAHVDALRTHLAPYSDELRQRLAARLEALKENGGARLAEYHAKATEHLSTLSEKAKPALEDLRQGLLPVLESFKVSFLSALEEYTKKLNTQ
Outline: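 Feed: 1 ml Eff. II+III (20% EtOH, 20-25 mg/ml hSA, ~1 mg/ml A1PI). 10 min residence, then 865 μl/min; steps 1M NaCl / 3M NaCl / 2% acetic acid; 4° C. Mass balance per fraction.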

A1PI [3] = target: T1, A1PI; test: Purification of A1PI from Effluent II+III on peptide column, A1PI mass balance; type: binding; settings: A1PI, 1 ml Eff. II+III, 4° C.
Outline: as §1

A1PI [4] = target: T1, A1PI; test: A1PI binding on peptide-resin column, injection of 1 mg A1PI in equilibration buffer; settings: 1 mg A1PI in equilibration buffer
Outline: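 Percent of total eluted A1PI per fraction (flowthrough, NaCl steps, 2% acetic acid) determined by A280 integration or immunonephelometry. Columns of peptide-derivatized A-Totda-Toyopearl resin (0.1 mmole/g) received 1 mg A1PI at 4 °C or 20 °C, flow 865 or 523 μl/min.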

A1PI [5] = target: T1, A1PI; test: Capture and elution of active A1PI with 2M urea buffer (elastase inhibition activity assay and immunonephelometry); type: binding; settings: 4° C.
[6] = * as in Tables 4, 5 (below detection limit)

## PYWIVR
A1PI [1]; 250 μg AlPI injected with 5 mg hSA, 20° C.
  Mass AlPI Eluted in Acid Eluate: 0.09 mg
A1PI [1]; 500 μg AlPI injected with 5 mg hSA, 20° C.
  Mass AlPI Eluted in Acid Eluate: 0.21 mg
A1PI [1]; 1000 μg AlPI injected with 5 mg hSA, 20° C.
  Mass AlPI Eluted in Acid Eluate: 0.30 mg
A1PI [1]; 4° C.
  Mass Protein per Eluate Fraction, 1M NaCl: 0.31 mg
  Mass Protein per Eluate Fraction, 2% Ac. Acid: 0.19 mg
  Mass Protein per Eluate Fraction, 3M NaCl: 0.02 mg
  Mass Protein per Eluate Fraction, Flow: 0.19 mg
  Percent Eluted by Fraction, 1M NaCl: 44%
  Percent Eluted by Fraction, 2% Ac. Acid: 27%
  Percent Eluted by Fraction, 3M NaCl: 3%
  Percent Eluted by Fraction, Flow: 27%
A1PI [1]; 20° C.
  Mass Protein per Eluate Fraction, 1M NaCl: 0.32 mg
  Mass Protein per Eluate Fraction, 2% Ac. Acid: 0.38 mg
  Mass Protein per Eluate Fraction, 3M NaCl: 0.02 mg
  Mass Protein per Eluate Fraction, Flow: 0.07 mg
  Percent Eluted by Fraction, 1M NaCl: 41%
  Percent Eluted by Fraction, 2% Ac. Acid: 48%
  Percent Eluted by Fraction, 3M NaCl: 2%
  Percent Eluted by Fraction, Flow: 9%
Immunoglobulin A (IgA)
  Percent Eluted by Fraction, 1M NaCl: 57%
  Percent Eluted by Fraction, 2% Acetic Acid: 22%
  Percent Eluted by Fraction, 3M NaCl: 0%
  Percent Eluted by Fraction, Flow: 21%
Immunoglobulin A (IgA); [6]
  Mass Protein per Eluate Fraction, 1M NaCl: 0.22 mg
  Mass Protein per Eluate Fraction, 2% Acetic Acid: 0.08 mg
  Mass Protein per Eluate Fraction, Flow: 0.08 mg
Immunoglobulin G (IgG)
  Percent Eluted by Fraction, 1M NaCl: 10%
  Percent Eluted by Fraction, 2% Acetic Acid: 0%
  Percent Eluted by Fraction, 3M NaCl: 0%
  Percent Eluted by Fraction, Flow: 90%
Immunoglobulin G (IgG); [6]
  Mass Protein per Eluate Fraction, 1M NaCl: 0.03 mg
  Mass Protein per Eluate Fraction, Flow: 0.30 mg
[2]
  Percent Eluted by Fraction, 1M NaCl: 60%
  Percent Eluted by Fraction, 2% Acetic Acid: 0%
  Percent Eluted by Fraction, 3M NaCl: 0%
  Percent Eluted by Fraction, Flow: 40%
[2]; [6]
  Mass Protein per Eluate Fraction, 1M NaCl: 0.34 mg
  Mass Protein per Eluate Fraction, Flow: 0.22 mg
A1PI [3]
  Percent Eluted by Fraction, 1M NaCl: 16%
  Percent Eluted by Fraction, 2% Acetic Acid: 29%
  Percent Eluted by Fraction, 3M NaCl: 0%
  Percent Eluted by Fraction, Flow: 56%
A1PI [3]; [6]
  Mass Protein per Eluate Fraction, 1M NaCl: 0.15 mg
  Mass Protein per Eluate Fraction, 2% Acetic Acid: 0.28 mg
  Mass Protein per Eluate Fraction, Flow: 0.55 mg
A1PI [4]; 4° C.
  Percent A1PI Eluted by Fraction Based on Absorbance at 280 nm, 1M NaCl: 74%
  Percent A1PI Eluted by Fraction Based on Absorbance at 280 nm, 2% Acetic Acid: 26%
  Percent A1PI Eluted by Fraction Based on Absorbance at 280 nm, Flowthrough: 0%
A1PI [4]; 20° C.
  Percent A1PI Eluted by Fraction, 1M NaCl: 55%
  Percent A1PI Eluted by Fraction, 2% Acetic Acid: 45%
  Percent A1PI Eluted by Fraction, Flowthrough: 0%
A1PI [5]; 1 mg A1PI, eluted with 2M urea, pH 6, elastase inhibition activity assay
  Mass A1PI in Urea Eluate (mg), Activity: 0.37 mg
A1PI [5]; 1 mg A1PI, eluted with 2M urea, pH 6, immunonephelometry
  Mass A1PI in Urea Eluate (mg), Nephelometry: 0.49 mg
A1PI [5]; mass of A1PI by activity assay relative to immunonephelometry, urea eluate
  Specific Activity: 0.75 mg/mg
